Data: article PMC6706415, “Inhibition of amyloid beta toxicity in zebrafish with a chaperone-gold nanoparticle dual strategy” (Nature Communications, 2019)

Biological target: T1, amyloid beta 42 monomers (UniProt P05067 672-713)
T1 construct: Aβ42, the 42-residue peptide derived from amyloid precursor protein (APP) by proteolysis; HFIP-treated Aβ was considered as Aβm; The peptide fibrillizes during 48 h incubations at 37 °C; also called Aβ42; Aβ; source: bought: Anaspec Inc., purity ≥ 95%; HFIP-treated
Assay: zeta potential + dynamic light scattering + TEM + CD; Aβ (100 µM; for TEM the ThT ratio, 50 µM Aβ to 6.25 µM βCas) with βCas or βCas AuNPs (12.5 µM βCas equivalent), 48 h at 37 °C in deionized water
Conditions: both partners purified

binding result: binds
B1: β casein (natural protein, UniProt P02666 16-224, looked up)
chain: RELEELNVPGEIVESLSSSEESITRINKKIEKFQSEEQQQTEDELQDKIHPFAQTQSLVYPFPGPIPNSLPQNIPPLTQTPVVVPPFLQPEVMGVSKVKEAMAPKHKEMPFPKYPVEPFTESQSLTLTDVENLHLPLPLLQSWMHQPHQPLPPTVMFPPQSVLSLSQSKVLPVPQKAVPYPQRDMPIQAFLLYQEPVLGPVRGPFPIIV
notes: β casein (βCas); Free βCas, which forms micelles in water; Probably the milk protein, which is naturally phosphorylated (surmise); also called βCas micelles
